{"source": "paper PMC9482650", "about": "“Quantitative fragmentomics allow affinity mapping of interactomes” (Nature Communications, 2022)", "data": [{"target": "T1, DFNB31_1, Q9P202", "T1 sequence (Q9P202 135-233, limits assumed, looked up)": "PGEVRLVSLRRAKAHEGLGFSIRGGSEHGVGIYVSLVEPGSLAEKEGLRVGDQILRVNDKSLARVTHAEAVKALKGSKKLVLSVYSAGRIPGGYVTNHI", "experiment": "holdup assay", "parameters": "key: below the threshold = too weak to quantify, mostly under pKd 3.1 to 4", "conditions": "plain residues with an end cap or a label only (N-terminal biotin on a linker: ado-ado)", "values": [{"binder": "HSGYRLNDYV", "note": "[CLDN14, O95500]", "pKd": "below the threshold"}]}, {"target": "DLG1_3, Q12959", "sequence (Q12959 457-571)": "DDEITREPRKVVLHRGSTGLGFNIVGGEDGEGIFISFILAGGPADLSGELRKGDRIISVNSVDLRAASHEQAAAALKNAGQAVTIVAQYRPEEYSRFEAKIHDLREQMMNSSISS", "experiment": "holdup assay", "parameters": "key: below the threshold = too weak to quantify, mostly under pKd 3.1 to 4", "conditions": "plain residues with an end cap or a label only (N-terminal biotin on a linker: ado-ado)", "values": [{"binder": "HSGYRLNDYV", "note": "[CLDN14, O95500]", "pKd": "below the threshold"}]}, {"target": "T2, DLG3_1, Q92796", "T2 sequence (Q92796 125-227, limits assumed, looked up)": "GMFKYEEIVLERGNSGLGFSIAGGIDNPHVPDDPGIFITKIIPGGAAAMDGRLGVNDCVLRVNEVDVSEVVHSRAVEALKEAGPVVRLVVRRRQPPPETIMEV", "experiment": "holdup assay", "parameters": "key: below the threshold = too weak to quantify, mostly under pKd 3.1 to 4", "conditions": "plain residues with an end cap or a label only (N-terminal biotin on a linker: ado-ado)", "values": [{"binder": "HSGYRLNDYV", "note": "[CLDN14, O95500]", "pKd": "below the threshold"}]}, {"target": "T3, DLG3_2, Q92796", "T3 sequence (Q92796 221-321, limits assumed, looked up)": "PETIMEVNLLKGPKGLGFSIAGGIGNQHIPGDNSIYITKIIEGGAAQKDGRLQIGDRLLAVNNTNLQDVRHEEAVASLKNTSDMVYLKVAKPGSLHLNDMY", "experiment": "holdup assay", "parameters": "key: below the threshold = too weak to quantify, mostly under pKd 3.1 to 4", "conditions": "plain residues with an end cap or a label only (N-terminal biotin on a linker: ado-ado)", "values": [{"binder": "HSGYRLNDYV", "note": "[CLDN14, O95500]", "pKd": "below the threshold"}]}, {"target": "DLG4_1, P78352", "sequence (P78352 62-152)": "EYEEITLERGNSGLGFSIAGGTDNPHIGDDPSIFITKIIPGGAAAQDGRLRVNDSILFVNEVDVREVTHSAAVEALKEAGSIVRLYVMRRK", "experiment": "holdup assay", "parameters": "key: below the threshold = too weak to quantify, mostly under pKd 3.1 to 4", "conditions": "plain residues with an end cap or a label only (N-terminal biotin on a linker: ado-ado)", "values": [{"binder": "HSGYRLNDYV", "note": "[CLDN14, O95500]", "pKd": "below the threshold"}]}, {"target": "GORASP2, Q9H8Y8", "experiment": "holdup assay", "parameters": "key: below the threshold = too weak to quantify, mostly under pKd 3.1 to 4", "conditions": "plain residues with an end cap or a label only (N-terminal biotin on a linker: ado-ado)", "values": [{"binder": "HSGYRLNDYV", "note": "[CLDN14, O95500]", "pKd": 3.85}]}, {"target": "T4, GRIP1_2, Q9Y3R0", "T4 sequence (Q9Y3R0 145-248, limits assumed, looked up)": "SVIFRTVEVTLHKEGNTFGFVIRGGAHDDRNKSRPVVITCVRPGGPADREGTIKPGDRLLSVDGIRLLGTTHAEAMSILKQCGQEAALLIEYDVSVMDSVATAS", "experiment": "holdup assay", "parameters": "key: below the threshold = too weak to quantify, mostly under pKd 3.1 to 4", "conditions": "plain residues with an end cap or a label only (N-terminal biotin on a linker: ado-ado)", "values": [{"binder": "HSGYRLNDYV", "note": "[CLDN14, O95500]", "pKd": "below the threshold"}]}, {"target": "T5, GRIP1_4, Q9Y3R0", "T5 sequence (Q9Y3R0 467-571, limits assumed, looked up)": "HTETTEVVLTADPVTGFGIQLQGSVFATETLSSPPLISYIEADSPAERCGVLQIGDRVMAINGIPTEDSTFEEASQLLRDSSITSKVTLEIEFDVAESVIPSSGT", "experiment": "holdup assay", "parameters": "key: below the threshold = too weak to quantify, mostly under pKd 3.1 to 4", "conditions": "plain residues with an end cap or a label only (N-terminal biotin on a linker: ado-ado)", "values": [{"binder": "HSGYRLNDYV", "note": "[CLDN14, O95500]", "pKd": "below the threshold"}]}, {"target": "HTRA1, Q92743", "sequence (Q92743 360-477)": "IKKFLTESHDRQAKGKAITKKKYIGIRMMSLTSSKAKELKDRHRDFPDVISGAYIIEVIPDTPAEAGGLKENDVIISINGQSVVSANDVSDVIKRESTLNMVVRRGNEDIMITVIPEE", "experiment": "holdup assay", "parameters": "key: below the threshold = too weak to quantify, mostly under pKd 3.1 to 4", "conditions": "plain residues with an end cap or a label only (N-terminal biotin on a linker: ado-ado)", "values": [{"binder": "HSGYRLNDYV", "note": "[CLDN14, O95500]", "pKd": 4.34}]}, {"target": "T6, HTRA3, P83110", "T6 sequence (P83110 354-453, limits assumed, looked up)": "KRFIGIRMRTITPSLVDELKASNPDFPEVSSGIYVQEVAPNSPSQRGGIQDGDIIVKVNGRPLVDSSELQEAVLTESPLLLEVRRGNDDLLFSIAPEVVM", "experiment": "holdup assay", "parameters": "key: below the threshold = too weak to quantify, mostly under pKd 3.1 to 4", "conditions": "plain residues with an end cap or a label only (N-terminal biotin on a linker: ado-ado)", "values": [{"binder": "HSGYRLNDYV", "note": "[CLDN14, O95500]", "pKd": 4.55}]}, {"target": "IL16_1, Q14005", "sequence (Q14005 210-306)": "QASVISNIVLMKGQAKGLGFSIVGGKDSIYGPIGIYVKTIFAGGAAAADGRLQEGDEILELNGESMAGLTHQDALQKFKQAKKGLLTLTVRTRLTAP", "experiment": "holdup assay", "parameters": "key: below the threshold = too weak to quantify, mostly under pKd 3.1 to 4", "conditions": "plain residues with an end cap or a label only (N-terminal biotin on a linker: ado-ado)", "values": [{"binder": "HSGYRLNDYV", "note": "[CLDN14, O95500]", "pKd": "below the threshold"}]}, {"target": "Inadl_10, Q8NI35", "sequence (Q8NI35 1673-1763)": "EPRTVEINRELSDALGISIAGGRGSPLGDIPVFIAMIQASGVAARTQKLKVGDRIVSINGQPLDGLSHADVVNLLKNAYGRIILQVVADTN", "experiment": "holdup assay", "parameters": "key: below the threshold = too weak to quantify, mostly under pKd 3.1 to 4", "conditions": "plain residues with an end cap or a label only (N-terminal biotin on a linker: ado-ado)", "values": [{"binder": "HSGYRLNDYV", "note": "[CLDN14, O95500]", "pKd": "below the threshold"}]}, {"target": "Inadl_5, Q8NI35", "sequence (Q8NI35 673-780)": "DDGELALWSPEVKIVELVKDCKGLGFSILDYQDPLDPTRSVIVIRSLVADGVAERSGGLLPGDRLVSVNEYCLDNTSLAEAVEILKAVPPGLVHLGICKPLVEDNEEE", "experiment": "holdup assay", "parameters": "key: below the threshold = too weak to quantify, mostly under pKd 3.1 to 4", "conditions": "plain residues with an end cap or a label only (N-terminal biotin on a linker: ado-ado)", "values": [{"binder": "HSGYRLNDYV", "note": "[CLDN14, O95500]", "pKd": 3.48}]}, {"target": "Inadl_9, Q8NI35", "sequence (Q8NI35 1530-1615)": "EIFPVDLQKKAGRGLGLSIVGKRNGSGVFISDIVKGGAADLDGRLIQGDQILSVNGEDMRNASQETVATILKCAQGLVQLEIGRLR", "experiment": "holdup assay", "parameters": "key: below the threshold = too weak to quantify, mostly under pKd 3.1 to 4", "conditions": "plain residues with an end cap or a label only (N-terminal biotin on a linker: ado-ado)", "values": [{"binder": "HSGYRLNDYV", "note": "[CLDN14, O95500]", "pKd": 3.58}]}, {"target": "LAP2, Q96RT1", "sequence (Q96RT1 other isoform, or with tags, fused parts or gaps)": "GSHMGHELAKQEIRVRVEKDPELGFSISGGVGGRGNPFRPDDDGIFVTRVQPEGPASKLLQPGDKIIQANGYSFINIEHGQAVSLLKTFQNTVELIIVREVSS", "experiment": "holdup assay", "parameters": "key: below the threshold = too weak to quantify, mostly under pKd 3.1 to 4", "conditions": "plain residues with an end cap or a label only (N-terminal biotin on a linker: ado-ado)", "values": [{"binder": "HSGYRLNDYV", "note": "[CLDN14, O95500]", "pKd": "below the threshold"}]}, {"target": "T7, LIN7B, Q9HAP6", "T7 sequence (Q9HAP6 88-185, limits assumed, looked up)": "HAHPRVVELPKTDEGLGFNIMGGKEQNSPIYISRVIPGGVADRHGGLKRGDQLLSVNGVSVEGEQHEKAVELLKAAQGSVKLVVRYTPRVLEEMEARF", "experiment": "holdup assay", "parameters": "key: below the threshold = too weak to quantify, mostly under pKd 3.1 to 4", "conditions": "plain residues with an end cap or a label only (N-terminal biotin on a linker: ado-ado)", "values": [{"binder": "HSGYRLNDYV", "note": "[CLDN14, O95500]", "pKd": "below the threshold"}]}, {"target": "T8, MPDZ_10, O75970", "T8 sequence (O75970 1624-1722, limits assumed, looked up)": "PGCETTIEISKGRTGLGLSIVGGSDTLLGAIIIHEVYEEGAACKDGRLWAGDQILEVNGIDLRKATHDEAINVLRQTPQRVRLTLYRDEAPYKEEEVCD", "experiment": "holdup assay", "parameters": "key: below the threshold = too weak to quantify, mostly under pKd 3.1 to 4", "conditions": "plain residues with an end cap or a label only (N-terminal biotin on a linker: ado-ado)", "values": [{"binder": "HSGYRLNDYV", "note": "[CLDN14, O95500]", "pKd": "below the threshold"}]}, {"target": "NHERF4_4, Q86UT5", "sequence (Q86UT5 464-550)": "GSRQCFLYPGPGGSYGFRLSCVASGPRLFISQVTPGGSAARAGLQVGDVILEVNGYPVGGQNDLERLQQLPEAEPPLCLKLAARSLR", "experiment": "holdup assay", "parameters": "key: below the threshold = too weak to quantify, mostly under pKd 3.1 to 4", "conditions": "plain residues with an end cap or a label only (N-terminal biotin on a linker: ado-ado)", "values": [{"binder": "HSGYRLNDYV", "note": "[CLDN14, O95500]", "pKd": 3.94}]}, {"target": "NOS1, P29475", "sequence (P29475 9-101)": "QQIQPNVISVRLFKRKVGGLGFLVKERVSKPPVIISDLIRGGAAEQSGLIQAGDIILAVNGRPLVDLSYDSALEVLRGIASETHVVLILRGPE", "experiment": "holdup assay", "parameters": "key: below the threshold = too weak to quantify, mostly under pKd 3.1 to 4", "conditions": "plain residues with an end cap or a label only (N-terminal biotin on a linker: ado-ado)", "values": [{"binder": "HSGYRLNDYV", "note": "[CLDN14, O95500]", "pKd": 4.21}]}, {"target": "T9, PARD3B_1, Q8TEW8", "T9 sequence (Q8TEW8 196-299, limits assumed, looked up)": "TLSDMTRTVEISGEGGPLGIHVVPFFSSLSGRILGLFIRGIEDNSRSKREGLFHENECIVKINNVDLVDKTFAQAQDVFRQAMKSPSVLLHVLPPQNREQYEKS", "experiment": "holdup assay", "parameters": "key: below the threshold = too weak to quantify, mostly under pKd 3.1 to 4", "conditions": "plain residues with an end cap or a label only (N-terminal biotin on a linker: ado-ado)", "values": [{"binder": "HSGYRLNDYV", "note": "[CLDN14, O95500]", "pKd": "below the threshold"}]}, {"target": "T10, PTPN13_1, Q12923", "T10 sequence (Q12923 1088-1188, limits assumed, looked up)": "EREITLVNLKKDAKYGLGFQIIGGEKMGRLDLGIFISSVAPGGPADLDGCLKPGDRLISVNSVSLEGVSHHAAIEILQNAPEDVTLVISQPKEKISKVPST", "experiment": "holdup assay", "parameters": "key: below the threshold = too weak to quantify, mostly under pKd 3.1 to 4", "conditions": "plain residues with an end cap or a label only (N-terminal biotin on a linker: ado-ado)", "values": [{"binder": "HSGYRLNDYV", "note": "[CLDN14, O95500]", "pKd": "below the threshold"}]}, {"target": "T11, RHPN1, Q8TCX5", "T11 sequence (Q8TCX5 508-602, limits assumed, looked up)": "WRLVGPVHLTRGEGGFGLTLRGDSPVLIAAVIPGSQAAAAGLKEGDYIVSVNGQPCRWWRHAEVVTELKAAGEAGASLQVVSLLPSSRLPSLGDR", "experiment": "holdup assay", "parameters": "key: below the threshold = too weak to quantify, mostly under pKd 3.1 to 4", "conditions": "plain residues with an end cap or a label only (N-terminal biotin on a linker: ado-ado)", "values": [{"binder": "HSGYRLNDYV", "note": "[CLDN14, O95500]", "pKd": "below the threshold"}]}, {"target": "T12, SYNJ2BP, P57105", "T12 sequence (P57105 8-110, limits assumed, looked up)": "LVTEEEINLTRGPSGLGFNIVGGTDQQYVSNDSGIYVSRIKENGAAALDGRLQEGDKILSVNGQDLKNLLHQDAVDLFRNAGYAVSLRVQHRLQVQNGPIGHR", "experiment": "holdup assay", "parameters": "key: below the threshold = too weak to quantify, mostly under pKd 3.1 to 4", "conditions": "plain residues with an end cap or a label only (N-terminal biotin on a linker: ado-ado)", "values": [{"binder": "HSGYRLNDYV", "note": "[CLDN14, O95500]", "pKd": 3.63}]}, {"target": "TJP1_3, Q07157", "sequence (Q07157 416-512)": "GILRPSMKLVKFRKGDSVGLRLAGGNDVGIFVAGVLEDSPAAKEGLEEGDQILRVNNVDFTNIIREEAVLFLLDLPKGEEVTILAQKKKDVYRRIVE", "experiment": "holdup assay", "parameters": "key: below the threshold = too weak to quantify, mostly under pKd 3.1 to 4", "conditions": "plain residues with an end cap or a label only (N-terminal biotin on a linker: ado-ado)", "values": [{"binder": "HSGYRLNDYV", "note": "[CLDN14, O95500]", "pKd": "below the threshold"}]}, {"target": "TJP2_1, Q9UDY2", "sequence (Q9UDY2 24-128)": "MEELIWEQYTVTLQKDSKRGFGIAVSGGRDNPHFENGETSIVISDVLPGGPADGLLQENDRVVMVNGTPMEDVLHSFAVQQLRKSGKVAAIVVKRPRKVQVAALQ", "experiment": "holdup assay", "parameters": "key: below the threshold = too weak to quantify, mostly under pKd 3.1 to 4", "conditions": "plain residues with an end cap or a label only (N-terminal biotin on a linker: ado-ado)", "values": [{"binder": "HSGYRLNDYV", "note": "[CLDN14, O95500]", "pKd": 4.72}]}]}
